Test results reported in PMC8878332, “The C-Terminal Domain of Staphylococcus aureus Zinc Transport Protein AdcA Binds Plasminogen and Factor H In Vitro” (Pathogens, 2022).

Target: T1, Human plasminogen (human)
T1 construct: human plasminogen, 92 kDa, commercial; also called PLG; purified plasminogen; source: bought: Sigma-Aldrich
Experiment: ELISA; plasminogen immobilised on plate wells (1 ug in 100 uL PBS), blocked with 1% gelatin; AdcA 0-1 uM in PBS, 1.5 h at 37 C; bound AdcA detected with rabbit anti-AdcA serum; apparent KD from the fit to total binding saturation (GraphPad Prism); MntC run as control; EACA (0.1-10 mM) or NaCl (25-800 mM) added in further panels
Details: both partners purified

T1 sequence (P00747 20-810): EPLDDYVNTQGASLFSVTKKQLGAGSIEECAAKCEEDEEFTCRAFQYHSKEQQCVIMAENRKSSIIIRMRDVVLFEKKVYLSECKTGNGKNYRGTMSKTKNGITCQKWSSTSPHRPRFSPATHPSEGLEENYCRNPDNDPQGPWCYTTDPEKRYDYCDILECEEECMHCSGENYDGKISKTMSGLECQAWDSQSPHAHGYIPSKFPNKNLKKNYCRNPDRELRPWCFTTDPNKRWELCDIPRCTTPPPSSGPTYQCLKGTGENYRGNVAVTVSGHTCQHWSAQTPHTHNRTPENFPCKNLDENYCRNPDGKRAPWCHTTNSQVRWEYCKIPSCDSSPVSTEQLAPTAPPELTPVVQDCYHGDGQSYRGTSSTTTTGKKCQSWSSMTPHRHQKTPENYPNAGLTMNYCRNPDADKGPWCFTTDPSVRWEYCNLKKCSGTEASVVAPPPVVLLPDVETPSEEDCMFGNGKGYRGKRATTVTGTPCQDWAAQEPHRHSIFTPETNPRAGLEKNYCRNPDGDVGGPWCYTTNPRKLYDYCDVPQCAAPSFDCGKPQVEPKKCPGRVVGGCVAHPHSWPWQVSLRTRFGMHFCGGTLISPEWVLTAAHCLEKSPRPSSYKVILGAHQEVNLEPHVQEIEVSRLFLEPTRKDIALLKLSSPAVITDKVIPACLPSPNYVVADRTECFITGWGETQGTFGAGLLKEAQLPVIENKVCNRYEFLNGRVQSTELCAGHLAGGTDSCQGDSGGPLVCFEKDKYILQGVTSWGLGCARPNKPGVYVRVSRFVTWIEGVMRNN

B1: MntC from Staphylococcus aureus (natural protein)
chain: CGTGGKQSSDKSNGKLKVVTTNSILYDMAKNVGGDNVDIHSIVPVGQDPHEYEVKPKDIKKLTDADVILYNGLNLETGNGWFEKALEQAGKSLKDKKVIAVSKDVKPIYLNGEEGNKDKQDPHAWLSLDNGIKYVKTIQQTFIDNDKKHKADYEKQGNKYIAQLEKLNNDSKDKFNDIPKEQRAMITSEGAFKYFSKQYGITPGYIWEINTEKQGTPEQMRQAIEFVKKHKLKHLLVETSVDKKAMESLSEETKKDIFGEVYTDSIGKEGTKGDSYYKMMKSNIETVHGSMK
For B1, the Kd was 14.8 nM.
